Assays:
HeLa Kyoto [1] = assay: solubility in G1/S (NP-40 vs SDS abundance) (log2 ratio); higher = more soluble; conditions: cell cycle stage: G1/S
HeLa Kyoto [2] = assay: solubility change mitosis vs G1/S (difference of NP-40 vs SDS log2 ratios) (log2 ratio difference); higher = more soluble in mitosis
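For solubility change mitosis vs G1/S (difference of NP-40 vs SDS log2 ratios) in this document: synchronized HeLa Kyoto cells (double thymidine block for G1/S, nocodazole release for mitosis), protein amounts in NP-40 versus SDS lysates quantified by mass spectrometry, three biological replicates.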
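For solubility in G1/S (NP-40 vs SDS abundance) in this document: HeLa Kyoto cells arrested at G1/S by double thymidine block, proteins quantified by TMT10plex mass spectrometry in mild NP-40 versus SDS extracts, three biological replicates.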

Row | Sequence | solubility in G1/S (log2) (HeLa Kyoto [1]) | solubility change mitosis (log2) (HeLa Kyoto [2])
1 | MSELKDCPLQFHDFKSVDHLKVCPRYTAVLARSEDDGIGIEELDTLQLELETLLSSASRRLRVLEAETQILTDWQDKKGDRRFLKLGRDHELGAPPKHGKPKKQKLEGKAGHGPGPGPGRPKSKNLQPKIQEYEFTDDPIDVPRIPKNDAPNRFWASVEPYCADITSEEVRTLEELLKPPEDEAEHYKIPPLGKHYSQRWAQEDLLEEQKDGARAAAVADKKKGLMGPLTELDTKDVDALLKKSEAQHEQPEDGCPFGALTQRLLQALVEENIISPMEDSPIPDMSGKESGADGASTSPRNQNKPFSVPHTKSLESRIKEELIAQGLLESEDRPAEDSEDEVLAELRKRQAELKALSAHNRTKKHDLLRLAKEEVSRQELRQRVRMADNEVMDAFRKIMAARQKKRTPTKKEKDQAWKTLKERESILKLLDG [TADA3] | 0.646 | 0.286
2 | MSFKREGDDWSQLNVLKKRRVGDLLASYIPEDEALMLRDGRFACAICPHRPVLDTLAMLTAHRAGKKHLSSLQLFYGKKQPGKERKQNPKHQNELRREETKAEAPLLTQTRLITQSALHRAPHYNSCCRRKYRPEAPGPSVSLSPMPPSEVKLQSGKISREPEPAAGPQAEESATVSAPAPMSPTRRRALDHYLTLRSSGWIPDGRGRWVKDENVEFDSDEEEPPDLPLD [SCNM1] | 0.0519 | 0.462
3 | MSFRGGGRGGFNRGGGGGGFNRGGSSNHFRGGGGGGGGGNFRGGGRGGFGRGGGRGGFNKGQDQGPPERVVLLGEFLHPCEDDIVCKCTTDENKVPYFNAPVYLENKEQIGKVDEIFGQLRDFYFSVKLSENMKASSFKKLQKFYIDPYKLLPLQRFLPRPPGEKGPPRGGGRGGRGGGRGGGGRGGGRGGGFRGGRGGGGGGFRGGRGGGFRGRGH [GAR1] | -1.36 | 1.41
4 | MSGPCGEKPVLEASPTMSLWEFEDSHSRQGTPRPGQELAAEEASALELQMKVDFFRKLGYSSTEIHSVLQKLGVQADTNTVLGELVKHGTATERERQTSPDPCPQLPLVPRGGGTPKAPNLEPPLPEEEKEGSDLRPVVIDGSNVAMSHGNKEVFSCRGILLAVNWFLERGHTDITVFVPSWRKEQPRPDVPITDQHILRELEKKKILVFTPSRRVGGKRVVCYDDRFIVKLAYESDGIVVSNDTYRDLQGERQEWKRFIEERLLMYSFVNDKFMPPDDPLGRHGPSLDNFLRKKPLTLEHRKQPCPYGRKCTYGIKCRFFHPERPSCPQRSVADELRANALLSPPRAPSKDKNGRRPSPSSQSSSLLTESEQCSLDGKKLGAQASPGSRQEGLTQTYAPSGRSLAPSGGSGSSFGPTDWLPQTLDSLPYVSQDCLDSGIGSLESQMSELWGVRGGGPGEPGPPRAPYTGYSPYGSELPATAAFSAFGRAMGAGHFSVPADYPPAPPAFPPREYWSEPYPLPPPTSVLQEPPVQSPGAGRSPWGRAGSLAKEQASVYTKLCGVFPPHLVEAVMGRFPQLLDPQQLAAEILSYKSQHPSE [ZC3H12A] | 0.15 | -0.0716
5 | MSGSDGGLEEEPELSITLTLRMLMHGKEVGSIIGKKGETVKRIREQSSARITISEGSCPERITTITGSTAAVFHAVSMIAFKLDEDLCAAPANGGNVSRPPVTLRLVIPASQCGSLIGKAGTKIKEIRETTGAQVQVAGDLLPNSTERAVTVSGVPDAIILCVRQICAVILESPPKGATIPYHPSLSLGTVLLSANQGFSVQGQYGAVTPAEVTKLQQLSSHAVPFATPSVVPGLDPGTQTSSQEFLVPNDLIGCVIGRQGSKISEIRQMSGAHIKIGNQAEGAGERHVTITGSPVSIALAQYLITACLETAKSTSGGTPSSAPADLPAPFSPPLTALPTAPPGLLGTPYAISLSNFIGLKPMPFLALPPASPGPPPGLAAYTAKMAAANGSKKAERQKFSPY [PCBP4] | 0.0231 | 0.0329
6 | MSISLSSLILLPIWINMAQIQQGGPDEKEKTTALKDLLSRIDLDELMKKDEPPLDFPDTLEGFEYAFNEKGQLRHIKTGEPFVFNYREDLHRWNQKRYEALGEIITKYVYELLEKDCNLKKVSIPVDATESEPKSFIFMSEDALTNPQKLMVLIHGSGVVRAGQWARRLIINEDLDSGTQIPFIKRAVAEGYGVIVLNPNENYIEVEKPKIHVQSSSDSSDEPAEKRERKDKVSKETKKRRDFYEKYRNPQREKEMMQLYIRENGSPEEHAIYVWDHFIAQAAAENVFFVAHSYGGLAFVELMIQREADVKNKVTAVALTDSVHNVWHQEAGKTIREWMRENCCNWVSSSEPLDTSVESMLPDCPRVSAGTDRHELTSWKSFPSIFKFFTEASEAKTSSLKPAVTRRSHRIKHEEL [FAM172A] | 0.202 | -0.00146
7 | MSKRLSPQLQHNITEDAYCETHLEPTRLFCDVDQITLCSKCFQSQEHKHHMVCGIQEAAENYRKLFQEILNTSREKLEAAKSILTDEQERMAMIQEEEQNFKKMIESEYSMRLRLLNEECEQNLQRQQECISDLNLRETLLNQAIKLATELEEMFQEMLQRLGRVGRENMEKLKESEARASEQVRSLLKLIVELEKKCGEGTLALLKNAKYSLERSKSLLLEHLEPAHITDLSLCHIRGLSSMFRVLQRHLTLDPETAHPCLALSEDLRTMRLRHGQQDGAGNPERLDFSAMVLAAESFTSGRHYWEVDVEKATRWQVGIYHGSADAKGSTARASGEKVLLTGSVMGTEWTLWVFPPLKRLFLEKKLDTVGVFLDCEHGQISFYNVTEMSLIYNFSHCAFQGALRPVFSLCIPNGDTSPDSLTILQHGPSCDATVSP [TRIML2] | 0.0183 | -0.17
8 | MSMILSASVIRVRDGLPLSASTDYEQSTGMQECRKYFKMLSRKLAQLPDRCTLKTGHYNINFISSLGVSYMMLCTENYPNVLAFSFLDELQKEFITTYNMMKTNTAVRPYCFIEFDNFIQRTKQRYNNPRSLSTKINLSDMQTEIKLRPPYQISMCELGSANGVTSAFSVDCKGAGKISSAHQRLEPATLSGIVGFILSLLCGALNLIRGFHAIESLLQSDGDDFNYIIAFFLGTAACLYQCYLLVYYTGWRNVKSFLTFGLICLCNMYLYELRNLWQLFFHVTVGAFVTLQIWLRQAQGKAPDYDV [SEC22A] | -0.17 | -0.0544
9 | MSRQTATALPTGTSKCPPSQRVPALTGTTASNNDLASLFECPVCFDYVLPPILQCQSGHLVCSNCRPKLTCCPTCRGPLGSIRNLAMEKVANSVLFPCKYASSGCEITLPHTEKADHEELCEFRPYSCPCPGASCKWQGSLDAVMPHLMHQHKSITTLQGEDIVFLATDINLPGAVDWVMMQSCFGFHFMLVLEKQEKYDGHQQFFAIVQLIGTRKQAENFAYRLELNGHRRRLTWEATPRSIHEGIATAIMNSDCLVFDTSIAQLFAENGNLGINVTISMC [SIAH1] | 0.247 | -0.11
10 | MSSESKEQHNVSPRDSAEGNDSYPSGIHLELQRESSTDFKQFETNDQCRPYHRILIERQEKSDTNFKEFVIKKLQKNCQCSPAKAKNMILGFLPVLQWLPKYDLKKNILGDVMSGLIVGILLVPQSIAYSLLAGQEPVYGLYTSFFASIIYFLLGTSRHISVGIFGVLCLMIGETVDRELQKAGYDNAHSAPSLGMVSNGSTLLNHTSDRICDKSCYAIMVGSTVTFIAGVYQVAMGFFQVGFVSVYLSDALLSGFVTGASFTILTSQAKYLLGLNLPRTNGVGSLITTWIHVFRNIHKTNLCDLITSLLCLLVLLPTKELNEHFKSKLKAPIPIELVVVVAATLASHFGKLHENYNSSIAGHIPTGFMPPKVPEWNLIPSVAVDAIAISIIGFAITVSLSEMFAKKHGYTVKANQEMYAIGFCNIIPSFFHCFTTSAALAKTLVKESTGCHTQLSGVVTALVLLLVLLVIAPLFYSLQKSVLGVITIVNLRGALRKFRDLPKMWSISRMDTVIWFVTMLSSALLSTEIGLLVGVCFSIFCVILRTQKPKSSLLGLVEESEVFESVSAYKNLQIKPGIKIFRFVAPLYYINKECFKSALYKQTVNPILIKVAWKKAAKRKIKEKVVTLGGIQDEMSVQLSHDPLELHTIVIDCSAIQFLDTAGIHTLKEVRRDYEAIGIQVLLAQCNPTVRDSLTNGEYCKKEEENLLFYSVYEAMAFAEVSKNQKGVCVPNGLSLSSD [SLC26A2] | -0.0844 | -0.0606
